The source of these data is patent US7119066 (Regeneron, dated 2006).

The target in assay [1] is T1, rat CNTF receptor on rat superior cervical ganglia (SCG) neurons (rat, UniProt Q08406 23-342).
T1 construct: whole, on cells; also called rat SCG neurons; rat receptor
T1 sequence (looked up): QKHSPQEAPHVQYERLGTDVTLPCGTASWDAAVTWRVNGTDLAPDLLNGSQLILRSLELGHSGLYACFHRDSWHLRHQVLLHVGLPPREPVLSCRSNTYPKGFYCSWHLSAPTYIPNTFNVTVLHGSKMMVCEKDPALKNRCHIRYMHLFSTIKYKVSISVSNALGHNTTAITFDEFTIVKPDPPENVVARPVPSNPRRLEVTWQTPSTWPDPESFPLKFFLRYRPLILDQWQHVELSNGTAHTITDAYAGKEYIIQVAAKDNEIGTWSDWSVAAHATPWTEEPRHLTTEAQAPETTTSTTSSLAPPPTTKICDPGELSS
Kind of assay: competition with 125I-rat CNTF on rat SCG neurons. How it is done: Growth medium consisted of Ham's nutrient mixture F12 with 10% heat-inactivated fetal bovine serum (Hyclone), nerve growth factor (NGF) (100 ng/ml), penicillin (50 U/ml) and streptomycin (50 µg/ml). Cultures were maintained at 37° C. in a humidified 95% air/5% CO_2 atmosphere. Ganglion non-neuronal cells were eliminated by treatment with araC (10 µM) on days 1 and 3 of culture. Cultures were fed 3 times/week and were routinely used for binding assays within 2 weeks.
(§1) Binding was performed directly on cell monolayers. Cells in culture wells were washed once with assay buffer consisting of phosphate buffered saline (PBS; pH 7.4), 0.1 mM bacitracin, 1 mM PMSF, 1 µg/ml leupeptin, and 1 mg/ml BSA. […] Non-specific binding was determined in the presence of 1,000-fold excess of unlabelled CNTF. Specific binding towards MG87/CNTFR was 80–90%. Data were analyzed using the […] program (ISI, Philadelphia, Pa.).

Assay [2] concerns the target T2, human CNTF receptor alpha-component on MG87/CNTFR fibroblasts (human, UniProt P26992 23-342).
T2 construct: whole, on cells; also called huCNTFR; CNTFRα
T2 sequence (looked up): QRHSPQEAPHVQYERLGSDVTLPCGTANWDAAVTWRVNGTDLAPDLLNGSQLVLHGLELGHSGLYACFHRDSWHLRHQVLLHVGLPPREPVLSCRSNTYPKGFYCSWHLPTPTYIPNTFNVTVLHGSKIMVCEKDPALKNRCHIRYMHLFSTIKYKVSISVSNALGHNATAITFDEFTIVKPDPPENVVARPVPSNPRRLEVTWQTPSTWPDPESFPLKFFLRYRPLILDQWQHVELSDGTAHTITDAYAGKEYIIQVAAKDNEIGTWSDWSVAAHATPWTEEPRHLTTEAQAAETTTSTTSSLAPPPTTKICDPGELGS
Briefly: competition with 125I-rat CNTF on MG87/CNTFR cells. The procedure: as §1
Similar results were obtained from competition experiments with mouse fibroblasts transfected with a plasmid directing the expression of the human CNTF receptor (FIG. 4b).

B1: recombinant human CNTF (ciliary neurotrophic factor) (ligand)
chain: MAFTEHSPLTPHRRDLCSRSIWLARKIRSDLTALTESYVKHQGLNKNINLDSADGMPVASTDQWSELTEAERLQENLQAYRTFHVLLARLLEDQQVHFTPTEGDFHQAIHTLLLQVAAFAYQIEELMILLEYKIPRNEADGMPINVGDGGLFEKKLWGLKVLQELSQWTVRSIHDLRFISSHQTGIPARGSHYIANNKKM
notes: also called rHCNTF; hCNTF
For the molecule B1, in assay [1], the “fold less potent than unlabelled rat CNTF” value worked out at 90 times. Further, the “fold less potent than rat CNTF” value in assay [2] was determined as 12 times.
